Measurements: article PMC5041027 (Membranes, 2016)

Biological target: Bacillus anthracis protective antigen, 63 kDa activated form (PA63), as ion channels in a tethered b (B. anthracis, UniProt P13423)
Assay: SPR
Conditions: both partners purified

Bacillus anthracis protective antigen, 63 kDa activated form (PA63), as ion channels in a tethered b, sequence (P13423 197-764): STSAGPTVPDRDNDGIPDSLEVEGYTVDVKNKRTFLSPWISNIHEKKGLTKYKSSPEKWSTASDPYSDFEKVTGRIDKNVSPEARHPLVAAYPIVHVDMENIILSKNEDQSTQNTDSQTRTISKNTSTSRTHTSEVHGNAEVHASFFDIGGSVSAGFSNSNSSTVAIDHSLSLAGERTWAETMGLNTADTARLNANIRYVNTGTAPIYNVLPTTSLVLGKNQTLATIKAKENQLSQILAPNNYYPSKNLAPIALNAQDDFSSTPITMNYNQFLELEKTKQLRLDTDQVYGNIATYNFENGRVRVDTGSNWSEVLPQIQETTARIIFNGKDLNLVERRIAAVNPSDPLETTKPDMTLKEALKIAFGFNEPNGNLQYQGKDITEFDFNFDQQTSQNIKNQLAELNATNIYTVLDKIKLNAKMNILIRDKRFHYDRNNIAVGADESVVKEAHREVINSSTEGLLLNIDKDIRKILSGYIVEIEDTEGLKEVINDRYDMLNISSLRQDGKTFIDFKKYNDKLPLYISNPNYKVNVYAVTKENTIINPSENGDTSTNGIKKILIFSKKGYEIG

B1: Bacillus anthracis Lethal Factor (natural protein)
chain: AGGHGDVGMHVKEKEKNKDENKRKDEERNKTQEEHLKEIMKHIVKIEVKGEEAVKKEAAEKLLEKVPSDVLEMYKAIGGKIYIVDGDITKHISLEALSEDKKKIKDIYGKDALLHEHYVYAKEGYEPVLVIQSSEDYVENTEKALNVYYEIGKILSRDILSKINQPYQKFLDVLNTIKNASDSDGQDLLFTNQLKEHPTDFSVEFLEQNSNEVQEVFAKAFAYYIEPQHRDVLQLYAPEAFNYMDKFNEQEINLSLEELKDQRMLARYEKWEKIKQHYQHWSDSLSEEGRGLLKKLQIPIEPKKDDIIHSLSQEEKELLKRIQIDSSDFLSTEEKEFLKKLQIDIRDSLSEEEKELLNRIQVDSSNPLSEKEKEFLKKLKLDIQPYDINQRLQDTGGLIDSPSINLDVRKQYKRDIQNIDALLHQSIGSTLYNKIYLYENMNINNLTATLGADLVDSTDNTKINRGIFNEFKKNFKYSISSNYMIVDINERPALDNERLKWRIQLSPDTRAGYLENGKLILQRNIGLEIKDVQIIKQSEKEYIRIDAKVVPKSKIDTKIQEAQLNINQEWNKALGLPKYTKLITFNVHNRYASNIVESAYLILNEWKNNIQSDLIKKVTNYLVDGNGRFVFTDITLPNIAEQYTHQDEIYEQVHSKGLYVPESRSILLHGPSKGVELRNDSEGFIHEFGHAVDDYAGYLLDKNQSDLVTNSKKFIDIFKEEGSNLTSYGRTNEAEFFAEAFRLMHSTDHAERLKVQKNAPKTFQFINDQIKFIINS
B1 was tested, and the “stoichiometry N” value was 2 LF molecules per PA63 channel.
